# Test results: US20240287172A1 (SCIRHOM, published 2024)
# T1: hiR2-FL-T555A-T7 (human, UniProt Q6PJF5 1-856)
# T1 sequence: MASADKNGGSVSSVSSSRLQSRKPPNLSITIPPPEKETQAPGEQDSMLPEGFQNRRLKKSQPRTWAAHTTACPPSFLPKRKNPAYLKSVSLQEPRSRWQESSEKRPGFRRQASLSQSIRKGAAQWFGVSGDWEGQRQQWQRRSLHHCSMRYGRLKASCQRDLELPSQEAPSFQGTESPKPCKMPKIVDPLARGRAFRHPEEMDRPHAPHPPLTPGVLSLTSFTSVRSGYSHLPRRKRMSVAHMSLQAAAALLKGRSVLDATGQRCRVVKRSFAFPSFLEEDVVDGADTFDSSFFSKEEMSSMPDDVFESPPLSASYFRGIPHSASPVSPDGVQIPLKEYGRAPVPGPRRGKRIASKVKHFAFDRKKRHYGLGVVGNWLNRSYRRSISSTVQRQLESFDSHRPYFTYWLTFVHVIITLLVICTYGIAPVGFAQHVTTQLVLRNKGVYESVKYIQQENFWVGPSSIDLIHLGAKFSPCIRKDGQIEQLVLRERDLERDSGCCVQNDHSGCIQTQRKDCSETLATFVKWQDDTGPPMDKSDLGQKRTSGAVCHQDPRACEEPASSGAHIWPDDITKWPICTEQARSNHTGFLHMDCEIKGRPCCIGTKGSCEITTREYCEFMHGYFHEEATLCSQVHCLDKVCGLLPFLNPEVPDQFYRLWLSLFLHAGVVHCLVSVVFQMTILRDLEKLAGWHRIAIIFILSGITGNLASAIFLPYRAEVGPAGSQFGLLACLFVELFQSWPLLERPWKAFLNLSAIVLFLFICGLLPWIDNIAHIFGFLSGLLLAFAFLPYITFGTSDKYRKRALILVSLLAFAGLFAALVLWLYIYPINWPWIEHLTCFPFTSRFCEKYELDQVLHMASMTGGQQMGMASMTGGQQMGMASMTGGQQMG
# T2: hiR2-FL-K525A-T7 (human, UniProt Q6PJF5 1-856)
# T2 sequence: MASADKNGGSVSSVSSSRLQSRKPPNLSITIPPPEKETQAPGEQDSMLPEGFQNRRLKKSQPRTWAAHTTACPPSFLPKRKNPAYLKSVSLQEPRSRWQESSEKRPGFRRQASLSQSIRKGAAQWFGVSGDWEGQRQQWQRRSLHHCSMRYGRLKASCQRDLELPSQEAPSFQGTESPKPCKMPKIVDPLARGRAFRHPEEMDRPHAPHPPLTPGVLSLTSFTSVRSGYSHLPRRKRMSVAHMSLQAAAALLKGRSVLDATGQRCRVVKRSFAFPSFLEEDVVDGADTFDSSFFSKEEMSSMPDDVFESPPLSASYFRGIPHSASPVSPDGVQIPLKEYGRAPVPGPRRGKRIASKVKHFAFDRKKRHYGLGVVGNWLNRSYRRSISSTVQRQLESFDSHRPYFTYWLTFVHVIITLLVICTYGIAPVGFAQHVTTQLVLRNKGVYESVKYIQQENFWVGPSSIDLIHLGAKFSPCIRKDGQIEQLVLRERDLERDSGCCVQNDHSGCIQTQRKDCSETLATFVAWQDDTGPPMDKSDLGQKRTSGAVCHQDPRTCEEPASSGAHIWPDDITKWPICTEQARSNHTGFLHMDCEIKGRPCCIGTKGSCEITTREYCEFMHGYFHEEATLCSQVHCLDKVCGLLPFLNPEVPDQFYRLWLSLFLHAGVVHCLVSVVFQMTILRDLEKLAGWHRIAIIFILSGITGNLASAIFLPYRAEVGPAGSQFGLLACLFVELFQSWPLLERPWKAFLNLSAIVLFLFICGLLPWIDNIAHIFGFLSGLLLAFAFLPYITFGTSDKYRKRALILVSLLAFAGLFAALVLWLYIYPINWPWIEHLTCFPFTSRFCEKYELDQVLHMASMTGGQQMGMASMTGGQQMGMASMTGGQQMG
# B1: antibody 3 (antibody, V domains shown)
# VH: QVTLKESGPGILQPSQTLSLTCSFSGFSLTTFAMGIGWVRQPSGKGLEWLAHIWWDGEKYNNPVLKSRLTISKDTSKNQVFLRIANVDTPDTATYYCARISSIYYIIDNWGQGTSVTVSS
# VL: DIVLTQSPATLSVTPGHSVSLSCRASQSISNNLHWYQKKSHESPRLLIKYVSQSISGIPSRFSGSGSGTDFTLSINSVETEDFGMYFCQQSYNWPLTFGAGTKLELK
# notes: mouse IgG, kappa light chain; also called clone #3; purified antibody 3
# B2: antibody 48 (antibody, V domains shown)
# VH: QVQLQQSGTELVRPGTSVKVSCKASGYAFTNYLIEWVKQRPGQGLEWIGVINPGSGFTKYNEKFKGKATLTADKSSSTVYMHLSSLTSEDSAVYFCARGLYRAMDYWGQGTSVTVSS
# VL: DIQMTQSPASQSASLGESVTITCLASQTIATWLAWYQQKPGKSPQLLIYGATTLADGVPSRFSGGGSGTKFSFKISSLQAEDFVSYYCQQLYSTPYTFGGGTKLEIK
# notes: mouse IgG, kappa light chain; also called clone #48; purified antibody 48
# Columns and labels:
# hiR2-FL-T555A-T7 = target: T1, hiR2-FL-T555A-T7; test: FACS on MEF-DKO cells expressing the variant, 3 µg/ml antibody
# Method in brief: (§1)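 Cells were stained with purified antibody at 3 μg/ml in FACS buffer for 1 hour on ice, with buffer-only controls. Bound antibody was detected with PE-conjugated goat anti-mouse IgG F(ab′)2 at 1:100, 1 hour on ice in the dark, followed by flow cytometry.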
# hiR2-FL-K525A-T7 = target: T2, hiR2-FL-K525A-T7; test: as above
# Method in brief: as §1
Binder,loss of binding vs wild type (hiR2-FL-T555A-T7) [%],loss of binding vs wild type (hiR2-FL-K525A-T7) [%]
B1,≥ 30,
B2,,≥ 30
